Reference: publication PMC10397247
Values belong to the binder of their own block, whether it stands above or below them.

Columns and labels:
4H3638-bH = target: T1, 4H3638-bH; assay: two-hybrid library CCNG1;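 also: natural log of median RNA to DNA barcode read ratio; higher means stronger binding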
T1 chain: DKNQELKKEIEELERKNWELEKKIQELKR

4H850-bH = target: T2, 4H850-bH; assay: two-hybrid library CCNG1;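 also: natural log of median RNA to DNA barcode read ratio; higher means stronger binding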
T2 chain: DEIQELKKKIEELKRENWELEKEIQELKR

4H570-bH = target: T3, 4H570-bH; assay: two-hybrid library CCNG1;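 also: natural log of median RNA to DNA barcode read ratio; higher means stronger binding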
T3 chain: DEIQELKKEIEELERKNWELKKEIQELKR

4H619-bH = target: T4, 4H619-bH; assay: two-hybrid library CCNG1;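 also: natural log of median RNA to DNA barcode read ratio; higher means stronger binding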
T4 chain: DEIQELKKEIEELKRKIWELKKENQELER

4H3817-bH = target: T5, 4H3817-bH; assay: two-hybrid library CCNG1;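 also: natural log of median RNA to DNA barcode read ratio; higher means stronger binding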
T5 chain: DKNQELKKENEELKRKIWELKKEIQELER

4H906-bH = target: T6, 4H906-bH; assay: two-hybrid library CCNG1;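 also: natural log of median RNA to DNA barcode read ratio; higher means stronger binding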
T6 chain: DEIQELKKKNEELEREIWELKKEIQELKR

4H584-bH = target: T7, 4H584-bH; assay: two-hybrid library CCNG1
T7 chain: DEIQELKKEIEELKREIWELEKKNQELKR

4H3974-bH = target: T8, 4H3974-bH; assay: two-hybrid library CCNG1
T8 chain: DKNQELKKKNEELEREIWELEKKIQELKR

4H949-bN = target: T9, 4H949-bN; assay: two-hybrid library CCNG1
T9 chain: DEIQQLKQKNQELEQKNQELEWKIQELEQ

4H932-bN = target: T10, 4H932-bN; assay: two-hybrid library CCNG1
T10 chain: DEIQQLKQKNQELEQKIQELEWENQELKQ

4H3381-bN = target: T11, 4H3381-bN; assay: two-hybrid library CCNG1
T11 chain: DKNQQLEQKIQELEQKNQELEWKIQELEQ

4H3041-bN = target: T12, 4H3041-bN; assay: two-hybrid library CCNG1
T12 chain: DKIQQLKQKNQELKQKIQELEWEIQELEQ

4H730-bN = target: T13, 4H730-bN; assay: two-hybrid library CCNG1
T13 chain: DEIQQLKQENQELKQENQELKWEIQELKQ

4H3297-bN = target: T14, 4H3297-bN; assay: two-hybrid library CCNG1
T14 chain: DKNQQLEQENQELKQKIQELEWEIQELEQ

4H796-bN = target: T15, 4H796-bN; assay: two-hybrid library CCNG1
T15 chain: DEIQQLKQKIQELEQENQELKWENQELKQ

4H349-bN = target: T16, 4H349-bN; assay: two-hybrid library CCNG1
T16 chain: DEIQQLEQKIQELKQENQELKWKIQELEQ

4H2931-bN = target: T17, 4H2931-bN; assay: two-hybrid library CCNG1
T17 chain: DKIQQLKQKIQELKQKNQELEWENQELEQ

4H3364-bN = target: T18, 4H3364-bN; assay: two-hybrid library CCNG1
T18 chain: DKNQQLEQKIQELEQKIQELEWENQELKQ

4H56-bN = target: T19, 4H56-bN; assay: two-hybrid library CCNG1
T19 chain: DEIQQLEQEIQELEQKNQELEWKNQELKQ

4H2283-AA = target: T20, 4H2283-AA; assay: two-hybrid library CCmax
T20 chain: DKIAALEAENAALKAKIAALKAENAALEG

4H3591-AA = target: T21, 4H3591-AA; assay: two-hybrid library CCmax; conditions: mean of both orientations
T21 chain: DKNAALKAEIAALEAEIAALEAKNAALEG

4H3666-AA = target: T22, 4H3666-AA; assay: two-hybrid library CCmax; conditions: mean of both orientations
T22 chain: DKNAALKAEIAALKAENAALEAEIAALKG

4H3102-AA = target: T23, 4H3102-AA; assay: two-hybrid library CCmax; conditions: mean of both orientations
T23 chain: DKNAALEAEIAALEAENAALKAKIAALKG

4H2991-AA = target: T24, 4H2991-AA; assay: two-hybrid library CCmax; conditions: mean of both orientations
T24 chain: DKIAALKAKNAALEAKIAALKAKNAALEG

4H3121-AA = target: T25, 4H3121-AA; assay: two-hybrid library CCmax; conditions: mean of both orientations
T25 chain: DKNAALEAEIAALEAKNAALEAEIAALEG

4H3709-AA = target: T26, 4H3709-AA; assay: two-hybrid library CCmax; conditions: mean of both orientations
T26 chain: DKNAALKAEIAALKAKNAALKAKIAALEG

4H971-AA = target: T27, 4H971-AA; assay: two-hybrid library CCmax; conditions: mean of both orientations
T27 chain: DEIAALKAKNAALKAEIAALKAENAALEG

4H675-AA = target: T28, 4H675-AA; assay: two-hybrid library CCmax; conditions: mean of both orientations
T28 chain: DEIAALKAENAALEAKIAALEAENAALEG

4H428-AA = target: T29, 4H428-AA; assay: two-hybrid library CCmax; conditions: mean of both orientations
T29 chain: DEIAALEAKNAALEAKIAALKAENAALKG

4H391-AA = target: T30, 4H391-AA; assay: two-hybrid library CCmax; conditions: mean of both orientations
T30 chain: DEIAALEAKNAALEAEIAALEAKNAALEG

4H497-AA = target: T31, 4H497-AA; assay: two-hybrid library CCmax; conditions: mean of both orientations
T31 chain: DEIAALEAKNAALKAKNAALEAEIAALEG

4H3628-AA = target: T32, 4H3628-AA; assay: two-hybrid library CCmax; conditions: mean of both orientations
T32 chain: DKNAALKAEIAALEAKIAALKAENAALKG

4H3446-AA = target: T33, 4H3446-AA; assay: two-hybrid library CCmax; conditions: mean of both orientations
T33 chain: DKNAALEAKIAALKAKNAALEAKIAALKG

4H3920-AA = target: T34, 4H3920-AA; assay: two-hybrid library CCmax; conditions: mean of both orientations
T34 chain: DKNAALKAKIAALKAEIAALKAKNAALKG

4H3066-AA = target: T35, 4H3066-AA; assay: two-hybrid library CCmax; conditions: mean of both orientations
T35 chain: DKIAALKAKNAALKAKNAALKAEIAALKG

4H2948-AA = target: T36, 4H2948-AA; assay: two-hybrid library CCmax; conditions: mean of both orientations
T36 chain: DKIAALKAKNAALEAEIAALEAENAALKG

4H3939-AA = target: T37, 4H3939-AA; assay: two-hybrid library CCmax; conditions: mean of both orientations
T37 chain: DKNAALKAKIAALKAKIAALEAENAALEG

4H2742-AA = target: T38, 4H2742-AA; assay: two-hybrid library CCmax; conditions: mean of both orientations
T38 chain: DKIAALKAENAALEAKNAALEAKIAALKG

4H656-AA = target: T39, 4H656-AA; assay: two-hybrid library CCmax; conditions: mean of both orientations
T39 chain: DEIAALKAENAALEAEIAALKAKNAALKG

4H3417-AA = target: T40, 4H3417-AA; assay: two-hybrid library CCmax; conditions: mean of both orientations
T40 chain: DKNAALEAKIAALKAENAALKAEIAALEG

4H3029-AA = target: T41, 4H3029-AA; assay: two-hybrid library CCmax; conditions: mean of both orientations
T41 chain: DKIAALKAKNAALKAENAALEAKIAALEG

4H2713-AA = target: T42, 4H2713-AA; assay: two-hybrid library CCmax; conditions: mean of both orientations
T42 chain: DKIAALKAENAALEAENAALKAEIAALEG

4H478-AA = target: T43, 4H478-AA; assay: two-hybrid library CCmax; conditions: mean of both orientations
T43 chain: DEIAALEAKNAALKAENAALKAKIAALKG

interaction score (4H3638-bH): -1.34
interaction score (4H850-bH): 1.04
interaction score (4H570-bH): -0.4
interaction score (4H619-bH): -1.47
interaction score (4H3817-bH): -0.0824
interaction score (4H906-bH): -0.762
interaction score (4H584-bH): -0.722
interaction score (4H3974-bH): -0.916
Binder: DKNQELKKEIEELERKNWELEKKIQELKR [4H3638-bH]

interaction score (4H949-bN): -0.75
interaction score (4H932-bN): -0.619
interaction score (4H3381-bN): -1.1
interaction score (4H3041-bN): -0.593
interaction score (4H730-bN): -1.27
interaction score (4H3297-bN): -0.835
interaction score (4H796-bN): -1.66
interaction score (4H349-bN): -1.08
interaction score (4H2931-bN): -0.656
interaction score (4H3364-bN): -0.721
interaction score (4H56-bN): 0.0366
Binder: DKIQQLKQKIQELKQKNQELEWENQELEQ [4H2931-bN]

interaction score (4H2283-AA): 1.25
interaction score (4H3591-AA): -1.46
interaction score (4H3666-AA): -0.868
interaction score (4H3102-AA): 0.17
interaction score (4H2991-AA): -1.95
interaction score (4H3121-AA): -0.934
interaction score (4H3709-AA): -1.11
interaction score (4H971-AA): -0.878
interaction score (4H675-AA): -0.967
interaction score (4H428-AA): -0.691
interaction score (4H391-AA): -0.595
interaction score (4H497-AA): -1.45
interaction score (4H3628-AA): -1.32
interaction score (4H3446-AA): -1.15
interaction score (4H3920-AA): -1.54
interaction score (4H3066-AA): -1.63
interaction score (4H2948-AA): 0.785
interaction score (4H3939-AA): -1.94
interaction score (4H2742-AA): -1.21
interaction score (4H656-AA): 1.84
interaction score (4H3417-AA): 1.63
interaction score (4H3029-AA): -1.74
interaction score (4H2713-AA): -1.19
interaction score (4H478-AA): -1.52
Binder: DKIAALEAENAALKAKIAALKAENAALEG [4H2283-AA]
